Patent US7960140B2, “Avidin mutants” (Orion Diagnostica Oy, priority 2003, dated 2011)
Like-named read-outs stand apart in the source and are kept apart here.

Columns and labels:
[1] = SDS-PAGE-based thermal stability assay; assay type: physicochemical; settings: for SDS-PAGE stability assay Tr (−)biotin / SDS-PAGE stability assay Tr (+)biotin: Table 5; for SDS-PAGE stability assay Tr (−)biotin: transition midpoint of oligomeric disassembly, without biotin; for SDS-PAGE stability assay Tr (+)biotin: with biotin; for Tr / Tr + btn: Table 2; for Tr: absence of biotin, half of tetramer/pseudo-tetramer broken into monomers; for Tr + btn: presence of biotin
Protocol: Thermal stability of the mutants was studied by using a SDS-PAGE-based method essentially as described in detail by Bayer et al. (Bayer, E. A. et al. Electrophoresis 17, 1319-1324 (1996)). Briefly, the protein sample in the absence or presence of biotin was diluted to a final concentration of 0.2 mg/mil in 50 mM Na-carbonate buffer, and the proteins were acetylated by adding acetyl NHS ester. Equal amount of SDS-PAGE sample buffer was added to each sample and the protein was incubated at different temperatures (between 25-100° C.) for 20 minutes. After that the samples were subjected to SDS-PAGE analysis and the gel was finally stained with Coomassie brilliant blue. Dissociation of the proteins into their subunits was observed from the gels and the transition temperatures, wherein half of the protein was (pseudo-)tetrameric and half monomeric were determined.

[2] = Dissociation assay with fluorescent biotin conjugate (ArcDia BF560); assay type: binding; settings: for Release 1 h / t1/4 (time point of 25% release) / kdiss: 23 ± 1° C.; for Release 1 h: 100-fold molar excess of free biotin; for t1/4 (time point of 25% release): determined directly from the measured data; for kdiss: one-phase dissociation model
Protocol: The biotin-binding properties of produced mutagenised dcAvds were analysed by method based on the quenching of biotin-coupled fluorescent probe ArcDia BF560 (ArcDia Ltd., Turku, Finland) due to binding to avidin (FIG. 4). PerkinElmer LS55 luminometer was used for measurements. […] The spectra of 50 nM biotin-Bf560 solution in 50 mM Na-phosphate containing 650 mM NaCl was measured (red). Chicken avidin (Belovo S. A., Bastogne, Belgium) was added to final subunit concentration of 83 nM and green spectra was obtained.
Briefly, 50 nM free biotin-Bf560 solution in 50 mM Na-phosphate containing 650 mM NaCl was measured using excitation at 560 nm (2.5 nm slit) and emission was collected at 578 nm (5 nm slit). Continuous stirring (setting low) was used throughout the analysis. After 100 sec measurement, the protein under study was added to final biotin-binding subunit concentration 50 nM and the measurement was continued for 500 sec. […]
A one-phase dissociation model was used to analyse the data, as described elsewhere (Hytönen et al., (2004) Biochem J, in press). The dissociation rate constant (kdiss) was determined by fitting the equation −kdisst=ln(B/Bo) to the data. Bo is the measured maximum binding (100%) determined as the difference between the fluorescence of the free dye and the fluorescence of the protein-dye complex, and B is the amount of complex measured as a function of time. The first 500 seconds were omitted from the data to abolish the effect of the fast initial phase characteristic of avidin-BF560-biotin interaction (FIG. 9). The fraction of fluorescent biotin released after one-hour was determined, as well as the times of half-maximal (t½) and quarter-maximal (t¼) release. For dual chain avidins with modified binding sites, it was hypothesized that 50% of the binding sites would behave like those of wt avidin (cpAvd5S4 binding site of dcAvd was not modified). The dissociation data measured for wt avidin divided by two was subtracted from the data measured for the modified dual chain avidins and the dissociation curve was fitted to the difference as above.

[3] = Heat-induced unfolding by DSC; assay type: physicochemical; settings: for ΔTm: change in Tm upon addition of a three-fold molar excess of biotin; for DSC Tm (+)biotin: three-fold molar excess of biotin; for DSC Tm (−)biotin: without biotin
[4] = IAsys optical biosensor binding to immobilised 2-iminobiotin; settings: for kass / kdiss: 2-iminobiotin surface, 50 mM borate pH 9.5, 1 M NaCl, 20° C.; for Kd: 2-iminobiotin
Protocol: Reversibility of biotin binding and affinity towards 2-iminobiotin were determined with an IAsys optical biosensor (Affinity Sensors, Cambridge, UK) (Table 1.) as described in detail by Marttila et. al. (Marttila, A. T. et al. FEBS Lett 441, 313-7 (1998)). Briefly, The 2-iminobiotin ligand was immobilized onto the carboxymethyldextran surface of a cuvette using N-hydroxysuccinimide activation. Binding of various concentrations of avidin or avidin mutants onto 2-iminobiotinylated surface was measured in a 50 mM borate buffer (pH 9.5) containing 1 M NaCl at 20° C. The 2-iminobiotin cuvettes were regenerated with 20 mM HCl. The kinetic rate constants for association (kass) and dissociation (kdiss) were calculated using the Fast Fit program package (Affinity Sensors). The obtained rate constants were used to calculate Kd(rel) according to Kd=kdiss/kass. Equilibrium data obtained from measurements with different protein concentrations were used to calculate the dissociation constant Kd(eq).

[5] = Reversibility of biotin binding on biotinylated IAsys cuvette surface; settings: reversibility from biotin surface; biotin 423 μg/ml, one hour
Protocol: The reversibility of biotin binding was also measured using IAsys apparatus. In the reversibility assay, the sample proteins were allowed to bind to the biotinylated cuvette surface in PBS containing 1 M NaCl. After the equilibrium was reached, the cuvette was filled with PBS, 1 M NaCl containing biotin (423 μg/ml) and the dissociation of the proteins was monitored for one hour.

[6] = Free biotin-binding sites by quenching of intrinsic fluorescence on biotin titration; settings: for Fluorescence quenching (350 nm): intrinsic fluorescence, emission 350 nm, due to binding of biotin; for Number of free biotin-binding sites per quaternary unit: protein 500±15 nM, titrated with biotin
Protocol: The number of free binding sites was determined based on the quenching of the intrinsic fluorescence of avidin due to binding of biotin (Laitinen et al., (2003) J. Biol. Chem. 278, 4010-4014). The protein sample under study diluted to 2 ml volume in 50 mM NaPO4 pH 7.0+650 mM NaCl was titrated with 1 μl additions of 70 μM biotin solution in the same buffer. The protein concentration in this assay was 500±15 nM, and the concentration was determined by comparing the emission intensity averaged over 340-350 nm (excitation at 280 nm) to avidin standard sample. The protein sample was continuously mixed by magnetic stirrer.
Intensity from each biotin concentration was averaged over eight second measurement. The end-point of the quenching was determined by fitting a line to obtained data and determining the total quenching by averaging the last three measured intensities (FIG. 12, Table 6).

[7] = Microplate temperature stability assay; assay type: physicochemical; settings: for activity after 32 min treatment: 80° C.
Protocol: FIG. 13. Temperature sensitivity determined by microplate assay. The avidin, dcAvd and scAvd sample is treated with the indicated temperature for certain time and the ability to bind biotinylated alkaline phosphatase was determined by coating the microplate with the sample.
The stability of the protein was studied by microplate assay as described in the article by Nordlund et al., (2003) J Biol Chem 278, 2479-83. In this assay, 50 mM Na—PO4 buffer containing 100 mM NaCl was used and the protein was heated to 80° C. or 90° C. for certain time. After that, the capacity to bind fluorescent biotin was measured as described in the article by Nordlund et al., (2003) J Biol Chem 278, 2479-83.

[8] = Colorimetric HABA-assay for number of free biotin-binding sites; settings: average from two independent experiments
Protocol: The colorimetric HABA-assay was performed essentially as described by Green (Green, N. Methods in Enzymology 18, 418-424 (1970)). Dual-chain avidin (dcAvd) in 100 mM phosphate buffer (pH 7) was saturated with excess HABA and the absorbance was measured at 500 nm with a Beckman DU640 spectrophotometer. After that, excess biotin, which replaces HABA from the binding site, was added to the sample and the absorbance at 500 nm was measured again. The observed change in the absorbance was used to calculate the number of free binding sites in dcAvd.
The number of biotin-binding sites per dual-chain avidin pseudo-tetramer (is actually a dimer with four binding sites) was determined in a colorimetric HABA-assay according to Green (Green, N. Methods in Enzymology 18, 418-424 (1970)). The average from two independent experiments gave an approximation of 3.3 free biotin-binding sites per dimeric molecule (pseudo-tetramer).

[9] = calculated from the rate constants (kdiss/kass), read-out: Kd(rel)
[10] = determined experimentally from the binding curves, read-out: Kd(eq)

Molecule: Avd(S16A): avidin mutant S16A in all four subunits
- SDS-PAGE stability assay Tr (−)biotin [1]: 55 °C
- SDS-PAGE stability assay Tr (+)biotin [1]: 80 °C
- Release 1 h [2]: 74.5%
- t1/4 (time point of 25% release) [2]: 621 s
- kdiss [2]: 0.00036 s⁻¹
- ΔTm [3]: 30.3 °C
- DSC Tm (+)biotin [3]: 114.6 ± 0.2 °C
- DSC Tm (−)biotin [3]: 84.3 ± 0.3 °C

Molecule: Avd(Y33H): avidin with four identically mutagenised (Y33H) subunits (Marttila et al. 2003) [reference compound]
- SDS-PAGE stability assay Tr (+)biotin [1]: 75 °C
- dissociation of biotin-coupled fluorescent probe with excess unlabeled biotin ([2]; 5 μM free biotin, 3600 sec, 23±0.5° C.): rapid and complete dissociation
- Release 1 h [2]: 99.2%
- t1/4 (time point of 25% release) [2]: 149 s
- kdiss [2]: 0.0011 s⁻¹
- ΔTm [3]: 33.3 °C
- DSC Tm (+)biotin [3]: 106.3 °C
- DSC Tm (−)biotin [3]: 73.0 °C

Molecule: Avidin: wild-type chicken avidin, homotetramer (SEQ ID NO:1) [reference compound]
- kass [4]: (5.5 ± 0.5) × 10^5 M^−1s^−1
- kdiss [4]: (1.9 ± 1.4) × 10^−3 s^−1
- Kd [4, 9]: 34 nM
- Kd [4, 10]: 22 nM
- reversibility [5]: 9%
- Tr [1]: 60 °C
- Tr + btn [1]: 95 °C
- SDS-PAGE stability assay Tr (−)biotin [1]: 60 °C
- SDS-PAGE stability assay Tr (+)biotin [1]: 95 °C
- Release 1 h [2]: 14.1%
- kdiss [2]: 2.3e-05 s⁻¹
- Dissociation of fluorescent biotin Release 1 h ([2]; 25° C.): 14.1%
- Dissociation of fluorescent biotin kdiss ([2]; 25° C.): 2.3e-05 s⁻¹
- Dissociation of fluorescent biotin Release 1 h ([2]; 50° C.): 71.5%
- Dissociation of fluorescent biotin kdiss ([2]; 50° C.): 0.00024 s⁻¹
- ΔTm [3]: 33.5 °C
- DSC Tm (+)biotin [3]: 117.0 ± 0.7 °C
- DSC Tm (−)biotin [3]: 83.5 ± 0.1 °C
- quenching measured for whole emission spectrum (290-500 nm) due to biotin binding [6]: 44.9%
- Fluorescence quenching (350 nm) [6]: 47.7%
- Number of free biotin-binding sites per quaternary unit [6]: 3.34
- Number of free biotin-binding sites per quaternary unit ([6]; listed as avidin): 3.3
- activity after 32 min treatment ([7]; 32 min): 82%
- activity present after 32 min treatment ([7]; 90° C., 32 min): over 50%
- heat inactivation ([7]; 100° C.): significantly slower response to the heat treatment

B1: dcAvd: dual-chain avidin, fusion of cpAvd5→4 and cpAvd6→5 via SGG spacer (SEQ ID NO:2) (protein, listed as Gallus gallus)
chain: MVHATSPLLLLLLLSLALVAPGLSARKRTQPTFGFTVNWKFSESTTVFTGQCFIDRNGKEVLKTMWLLRSSVNDIGDDWKATRVGINIFTRLRTQKEGGSGGSARKCSLTGKWTNDLGSNMTIGAVNSRGEFTGTYITAVTATSNEIKESPLHGTQNTINKSGGSTTVFTGQCFIDRNGKEVLKTMWLLRSSVNDIGDDWKATRVGINIFTRLRTQKEGGSGGSARKCSLTGKWTNDLGSNMTIGAVNSRGEFTGTYITAVTATSNEIKESPLHGTQNTINKRTQPTFGFTVNWKFSE
- kass [4]: (9.8 ± 1.3) × 10^4 M^−1s^−1
- kdiss [4]: (1.1 ± 0.5) × 10^−3 s^−1
- Kd [4, 9]: 110 nM
- Kd [4, 10]: 41 nM
- reversibility [5]: 8%
- free biotin-binding sites per dimeric molecule (pseudo-tetramer) [8]: ~3.3
- Tr [1]: 40 °C
- Tr + btn [1]: 75 °C
- SDS-PAGE stability assay Tr (−)biotin [1]: 40 °C
- SDS-PAGE stability assay Tr (+)biotin [1]: 75 °C
- Release 1 h [2]: 10.1%
- kdiss [2]: 1.4e-05 s⁻¹
- Dissociation of fluorescent biotin Release 1 h ([2]; 25° C.): 10.1%
- Dissociation of fluorescent biotin kdiss ([2]; 25° C.): 1.5e-05 s⁻¹
- Dissociation of fluorescent biotin Release 1 h ([2]; 50° C.): 67.4%
- Dissociation of fluorescent biotin kdiss ([2]; 50° C.): 0.00027 s⁻¹
- ΔTm [3]: 35.7 °C
- DSC Tm (+)biotin [3]: 115.9 °C
- DSC Tm (−)biotin [3]: 80.2 ± 0.0 °C
- quenching measured for whole emission spectrum (290-500 nm) due to biotin binding [6]: 45.1%
- Fluorescence quenching (350 nm) [6]: 51.4%
- Number of free biotin-binding sites per quaternary unit [6]: 3.86
- activity after 32 min treatment ([7]; 32 min): 59%
- heat inactivation ([7]; 90° C.): fast denaturation
- heat inactivation ([7]; 100° C.): fast inactivation
